Laboratory results published in article PMC6372160, “Biophysical and structural characterization of a zinc-responsive repressor of the MarR superfamily” (PLoS ONE, 2019).

Assays:
[1] = biological target: the molecule itself; assay: SEC; gel filtration at the end of purification, 20 mM Tris-HCl (pH 7.0), 200 mM NaCl, 100 uM ZnSO4; data not shown
[2] = biological target: the molecule itself; assay: SEC-MALS; 50 ul of fully purified protein at approximately 1-4 mg/ml on a KW-803 column (Shodex), 0.5 ml/min, supplemented with 1 uM ZnSO4 (untreated protein)

B1: ZitR protein of Lactococcus lactis subspecies cremoris strain MG1363, untagged recombinant (S2A, A4R, D8E) form (natural protein, UniProt A2RNS2 1-145, looked up)
chain: MALRNQIEQFLGAIMQFAENKHEILLGECESNVKLTSTQEHILMILAAEVSTNARIAEQLKISPAAVTKALKKLQEQELIKSSRATNDERVVLWSLTEKAIPVAKEHAAHHEKTLSTYQELGDKFTDEEQKVISQFLSVLTEEFR
notes: A minor tetrameric form was also seen at the end of the purification; also called ZitRMG; holo-ZitRMG
[1]
  stoichiometry N: 4
[2]
  stoichiometry N: 2
